Data on three proteins can be found in publication PMC5516924 (Biochemistry, 2016).

The data set “crystal structure” concerns the molecule itself. Kind of data set: crystal structure.
The data set “SEC” deals with the molecule itself. Kind of data set: SEC. A general note: In gel filtration, larger molecules generally elute earlier.

B1: yGsy2-R589A/R592A (enzyme, Saccharomyces cerevisiae)
chain: MSRDLQNHLLFETATEVANRVGGIYSVLKSKAPITVAQYKDHYHLIGPLNKATYQNEVDILDWKKPEAFSDEMRPVQHALQTMESRGVHFVYGRWLIEGAPKVILFDLDSVRGYSNEWKGDLWSLVGIPSPENDFETNDAILLGYTVAWFLGEVAHLDSQHAIVAHFHEWLAGVALPLCRKRRIDVVTIFTTHATLLGRYLCASGSFDFYNCLESVDVDHEAGRFGIYHRYCIERAAAHSADVFTTVSQITAFEAEHLLKRKPDGILPNGLNVIKFQAFHEFQNLHALKKEKINDFVRGHFHGCFDFDLDNTLYFFIAGRYEYKNKGADMFIEALARLNYRLKVSGSKKTVVAFIVMPAKNNSFTVEALKGQAEVRALENTVHEVTTSIGKRIFDHAIRYPHNGLTTELPTDLGELLKSSDKVMLKRRILALRRPEGQLPPIVTHNMVDDANDLILNKIRQVQLFNSPSDRVKMIFHPEFLNANNPILGLDYDEFVRGCHLGVFPSYYEPWGYTPAECTVMGVPSITTNVSGFGAYMEDLIETNQAKDYGIYIVDRRFKAPDESVEQLVDYMEEFVKKTRRQRINQRNATEALSDLLDWKRMGLEYVKARQLALRRGYPDQFRELVGEELNDSNMDALAGGKKLKVARPLSVPGSPRDLRSNSTVYMTPGDLGTLQEVNNADDYFSLGVNPAADDDDDGPYADDS
One may read the stoichiometry N as a count of units in the complex or per binding partner. B1: the “stoichiometry N” value in the data set “crystal structure” amounted to 4.

B2: yGsy2-R581A/R592A (enzyme, Saccharomyces cerevisiae)
chain: MSRDLQNHLLFETATEVANRVGGIYSVLKSKAPITVAQYKDHYHLIGPLNKATYQNEVDILDWKKPEAFSDEMRPVQHALQTMESRGVHFVYGRWLIEGAPKVILFDLDSVRGYSNEWKGDLWSLVGIPSPENDFETNDAILLGYTVAWFLGEVAHLDSQHAIVAHFHEWLAGVALPLCRKRRIDVVTIFTTHATLLGRYLCASGSFDFYNCLESVDVDHEAGRFGIYHRYCIERAAAHSADVFTTVSQITAFEAEHLLKRKPDGILPNGLNVIKFQAFHEFQNLHALKKEKINDFVRGHFHGCFDFDLDNTLYFFIAGRYEYKNKGADMFIEALARLNYRLKVSGSKKTVVAFIVMPAKNNSFTVEALKGQAEVRALENTVHEVTTSIGKRIFDHAIRYPHNGLTTELPTDLGELLKSSDKVMLKRRILALRRPEGQLPPIVTHNMVDDANDLILNKIRQVQLFNSPSDRVKMIFHPEFLNANNPILGLDYDEFVRGCHLGVFPSYYEPWGYTPAECTVMGVPSITTNVSGFGAYMEDLIETNQAKDYGIYIVDRRFKAPDESVEQLVDYMEEFVKKTRAQRINQRNRTEALSDLLDWKRMGLEYVKARQLALRRGYPDQFRELVGEELNDSNMDALAGGKKLKVARPLSVPGSPRDLRSNSTVYMTPGDLGTLQEVNNADDYFSLGVNPAADDDDDGPYADDS
In the case of B2, in “SEC”, the “stoichiometry N” value stood at 4.

B3: yGsy2-R581C/R592C (enzyme, Saccharomyces cerevisiae)
chain: MSRDLQNHLLFETATEVANRVGGIYSVLKSKAPITVAQYKDHYHLIGPLNKATYQNEVDILDWKKPEAFSDEMRPVQHALQTMESRGVHFVYGRWLIEGAPKVILFDLDSVRGYSNEWKGDLWSLVGIPSPENDFETNDAILLGYTVAWFLGEVAHLDSQHAIVAHFHEWLAGVALPLCRKRRIDVVTIFTTHATLLGRYLCASGSFDFYNCLESVDVDHEAGRFGIYHRYCIERAAAHSADVFTTVSQITAFEAEHLLKRKPDGILPNGLNVIKFQAFHEFQNLHALKKEKINDFVRGHFHGCFDFDLDNTLYFFIAGRYEYKNKGADMFIEALARLNYRLKVSGSKKTVVAFIVMPAKNNSFTVEALKGQAEVRALENTVHEVTTSIGKRIFDHAIRYPHNGLTTELPTDLGELLKSSDKVMLKRRILALRRPEGQLPPIVTHNMVDDANDLILNKIRQVQLFNSPSDRVKMIFHPEFLNANNPILGLDYDEFVRGCHLGVFPSYYEPWGYTPAECTVMGVPSITTNVSGFGAYMEDLIETNQAKDYGIYIVDRRFKAPDESVEQLVDYMEEFVKKTRCQRINQRNRTECLSDLLDWKRMGLEYVKARQLALRRGYPDQFRELVGEELNDSNMDALAGGKKLKVARPLSVPGSPRDLRSNSTVYMTPGDLGTLQEVNNADDYFSLGVNPAADDDDDGPYADDS
With B3, the “stoichiometry N” value in “SEC” was 4.
